# Earlier results as cited in US20050220810A1, “Anti-aging preparation” (Shiseido Company, Ltd., priority 2002, published 2005).
# B1: TPA: tissue plasminogen activator, a positive control of the TSP-1 inducing substance (protein, UniProt P00750 36-562, looked up)
# Tissue-type plasminogen …: SYQVICRDEKTQMIYQQHQSWLRPVLRSNRVEYCWCNSGRAQCHSVPVKSCSEPRCFNGGTCQQALYFSDFVCQCPEGFAGKCCEIDTRATCYEDQGISYRGTWSTAESGAECTNWNSSALAQKPYSGRRPDAIRLGLGNHNYCRNPDRDSKPWCYVFKAGKYSSEFCSTPACSEGNSDCYFGNGSAYRGTHSLTESGASCLPWNSMILIGKVYTAQNPSAQALGLGKHNYCRNPDGDAKPWCHVLKNRRLTWEYCDVPSCSTCGLRQYSQPQFRIKGGLFADIASHPWQAAIFAKHRRSPGERFLCGGILISSCWILSAAHCFQERFPPHHLTVILGRTYRVVPGEEEQKFEVEKYIVHKEFDDDTYDNDIALLQLKSDSSRCAQESSVVRTVCLPPADLQLPDWTECELSGYGKHEALSPFYSERLKEAHVRLYPSSRCTSQHLLNRTVTDNMLCAGDTRSGGPQANLHDACQGDSGGPLVCLNDGRMTLVGIISWGLGCGQKDVPGVYTKVTNYLDWIRDNMRP
# Test system: vascular endothelial cell HMVEC
# Details: general statement on positive controls of TSP-1 induction; no test described
molecule,measurement,value
B1,induction of cell death in vascular endothelial cells,does not induce cell death
